Measured values taken from patent US7361133B2, “Methods of detection utilizing modified bacteriophage” (The Johns Hopkins University, priority 1997, dated 2008).

How the values were obtained:
[1] = target: T1, N-NR1 protein on cell surface of CHO cells (Rattus norvegicus, UniProt P35439); experiment: Phage-immunostain of CHO cells expressing N-NR1 on cell surface; assay type: cell-based, Chinese hamster; conditions: 500 mM Mag-4.1 peptide
T1 construct: N-NR1 (aa. 1-561); expressed in transfected cells
Method: (§1) Immunostain and Fluorescence Activated Cell Sorting (FACS). The cells were grown on cover glass coated with 1% gelatin. Prior to addition of immunoglobulin, the cells were first washed three times with cold PBS and fixed with 2% paraformaldehyde (PFA) overnight. After washing the cells with cold PBS, the fixed cells were incubated with mAb8610 (1 mg /ml) at room temperature for 1 hour. The binding of mAb8610 was detected by incubating with anti-mouse conjugated with Texas-red (15 mg per ml) 1 hour at 4C. The immunostain was visualized by a Nikon Optiphot-2 fluorescent microscope and images were collected/digitalized using a computer. Cytometry of stained cells were analyzed on either FACScan or FACStar Plus Sorter (Becton-Dickinson, San Jose, Calif.). An Argon laser is used and tuned at 488 nm. The green fluorescence was recorded in the FLI emission channel.
(§2) Phage-immunostain and Phage-FACS detection. The purified phage preparation was used to stain live cells. For immunostain the cells were washed three times with cold PBS. Phage binding were initiated by incubating with the cells with purified phage (10^10 tu per ml) on ice for 1 hour. […] The phage-binding was detected first by rabbit anti-phage antibody (1:10,000 dilution) followed by Fluorescein labeled anti-rabbit antibody (10 mg/ml, Vector Lab, Calif.). The fluorescence labeled cells were visualized under a fluorescence microscope. […]

[2] = target: T2, N-NR1 protein on CHO cells (Rattus norvegicus, UniProt P35439); experiment: Phage-FACS of CHO cells expressing N-NR1; assay type: cell-based, Chinese hamster
T2 construct: N-NR1 (aa. 1-561); expressed in transfected cells
Method: as §1, §2

[3] = target: T3, N-NR1 (NH2-terminal domain of NR1, a.a 1-561) fusion protein (Rattus norvegicus, UniProt P35439); experiment: Phage ELISA, binding to immobilized N-NR1 fusion protein; set-up: Inhibition of Mag-4.1 phage binding to N-NR1 by synthetic peptide: dose or concentration left out as unconfirmed
T3 construct: N-NR1 (aa. 1-561); made in house
Method: Phage selection. Six wells of a 96-well plate were precoated with mAb8610 ([…]) at 37° C. for one hour, blocked with 1% BSA for 30 minutes at 37° C. The N-NR1 fusion protein was first released by PIPLC digest after extensive washes of cells that express N-NR1. The released N-NR1 protein in the MEM medium was first treated by endo-F (1 unit per 10 mg protein) for overnight at 37° C. The treated preparation was affinity-purified by mAb8610 capture on the plates (1 mg of N-NR1 per well) at 22° C. for one hour. The phage binding was carried out by incubating with a total of 10^12 tu (transducing units) of a X9 library with a complexity of 1.2×10^10 recombinants. The binding buffer contains 10 mM Tris-HCl (pH 8.1), 100 mM NaCl and 1 mM EDTA for 3 hours at 4° C. Unbound material was removed with three washes of the binding buffer. The bound phagemid particles were recovered by adding […] of 0.1 M glycine-HCl (pH 2.2). After 10 minutes elution at room temperature, the elutes were immediately neutralized by mixing with equal volume of 0.1 M Trisbase (pH 9.2). The recovered phagemids were amplified in bacteria, and resultant phage preparations were used for the following round of purification.
After five consecutive rounds of selection, the ELISA tests were performed using the supernatant of overnight cultures in the presence of 100 mM Hepes-NaOH (pH7.5) and 100 mM NaCl. The wells were coated with receptors according to the procedure described above. The bound phage particles were first detected by using rabbit anti-phage antibody (1:10,000) followed by alkaline phosphatase (AP)-conjugated secondary antibody (1:5,000, Sigma). After washing the wells with the binding buffer, […] of developing solution containing 1 mg/ml pNPP (Sigma, Mo.) in 10 mM diethanolamine-HCl (pH 9.7) was added. The alkaline phosphatase activity was monitored at the wavelength of 408 nm using a microtiter plate reader. Phage purification. The bacteria in culture medium containing phage was removed by centrifugation at 5,000×g for 30 minutes. […]

[4] = target: T4, functional NMDA receptor channels (NR1 and NR2A) in HEK cells (Rattus norvegicus, UniProt P35439); experiment: Phage-immunostain of HEK cells transiently expressing NR1 and NR2A; assay type: cell-based; conditions: 500 mM synthetic Mag-4.1 peptide
T4 construct: expressed in transfected cells; host or cells: HEK cells, transient cotransfection
Method: Phage-immunostain and Phage-FACS detection. The purified phage preparation was used to stain live cells. For immunostain the cells were washed three times with cold PBS. Phage binding were initiated by incubating with the cells with purified phage (10^10 tu per ml) on ice for 1 hour. After incubation, the unbound phage was removed by three washes of cold PBS supplemented with 1% bovine serum albumin (BSA). the fixation was carried out using 2% PFA overnight at 4C. The phage-binding was detected first by rabbit anti-phage antibody (1:10,000 dilution) followed by Fluorescein labeled anti-rabbit antibody (10 mg/ml, Vector Lab, Calif.). The fluorescence labeled cells were visualized under a fluorescence microscope. For Phage-FACS, the cell preparation procedures were identical except the cells were first dislodged from the dishes by incubating with PBS supplemented with 5 mM EDTA.

[5] = target: N-NR1 fusion protein (putative amino-terminal domain of NR1, a.a 1-561, fused to the mAb8610 epitope tag and GPI anchor signal sequence) (UniProt P35439); experiment: phage-overlay on nitrocellulose after denaturation-renaturation

GGGLNDWFITYIGGG [Mag-4.1 peptide] was tested, and the “Inhibition of phage staining signal by synthetic peptide” value [1] was “completely inhibited”, the “Inhibition of FACS phage stain signal by synthetic peptide, low N-NR1 CHO cells” value ([2]; 500 mM Mag-4.1 peptide (FIG. 5C)) was “completely inhibited” and the “Effect of synthetic peptide on FACS staining signal, 1:1 mixture of low and high N-NR1 CHO cells” value ([2]; 500 mM Mag-4.1 peptide (FIG. 5E)) was “the staining signal is sensitive to Mag-4.1 peptide”. The “Affinity of monovalent peptide” value ([3]; competition phage ELISA (FIG. 1C)) was “low affinity”, the “Inhibition of Mag-4.1 phage binding to N-NR1 by synthetic peptide” value ([3]; synthetic peptide, phage ELISA) was “completely inhibited” and the “Inhibition of phage stain signal on NR1/NR2A HEK cells by synthetic peptide” value [4] was “completely inhibited”.

For LEAWFLQYI [Mag-4.2], the “Phage binding to N-NR1” value ([3]; phage ELISA, immobilized N-NR1) was “specifically association with N-NR1”.

Work on LNDWFITYI (peptide, not shown: large carriers) [Mag-4.1 phage] yielded a least amount of N-NR1 protein per lane at which specific binding is detected [5] of 20 ng.
